From patent publication US12698507B2, “Methods and compositions for conferring and/or enhancing herbicide tolerance using protoporphyrinogen IX oxidase of various cyanobacteria or variant thereof” (FarmHannong Co., Ltd., priority 2019, dated 2026)

The molecules below were run on PPO-deficient BT3 E. coli (ΔPPO) (assay: PPO-inhibiting herbicide tolerance test of PPO variants in E. coli (growth on herbicide-containing LB agar)). Settings: CyPPO19 variants in BT3 (ΔPPO) E. coli; LB agar with 0 to 2,000 μM herbicide, 37° C., dark, 16-20 hours.
Format: cell-based
In short: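 PPO-deficient BT3 E. coli expressing each variant from pET303 were diluted to OD600=0.5, then 10-fold serially, and spotted on LB-ampicillin agar with 0 to 2,000 μM herbicide. After 16-20 h at 37° C. in the dark, growth relative to wild type was scored from '−' (equivalent) to '+' per 10-fold resistance, max '+++++'.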

Molecule | tolerance level relative to wild type, Carfentrazone | tolerance level relative to wild type, Flumioxazin | tolerance level relative to wild type, Fomesafen | tolerance level relative to wild type, Oxyfluorfen | tolerance level relative to wild type, Saflufenacil | tolerance level relative to wild type, Sulfentrazone | tolerance level relative to wild type, Tiafenacil
CyPPO19 V305M + I408W + F360I: variant of CyPPO19 PPO protein (SEQ ID NO: 1) (protein, Synthetic_PPO of Thermosynechococcus elongatus PKUAC-SCTE542 (comprising GenBank No. CP032152.1)) MSEVDVAIVGGGLSGLSLAWRLQQSAPQYSVVLLEASDRLGGNITTQTAEGFVWELGPNSFAPTPALLQLIAEVGLQSELIRGDRHLPRYIYWRGQLYPLQPTRPLALATSNLLSPWGKVRAALGALGFVPPYLGSGDESVNSFFRRHLGQEVAERLVAPFVSGVYAGDPQQLSAAAAFRRIAQLEKLGGGLIAGALHLRRQQAPKPKPPTSVQMRPGELGSFKEGLAALPRAIAQQLKAPIHLQTPVQEITPDPKGGYLLRSGEQTWRARSVVLATPAYQTAELVAPFQPAIARVLATIPYPTMACVVLAYPAGLGRSVRPGFGVLIPRSQGIRTLGTIWSSCLFPQRTPAGWQVFTSIIGGATDPDLASLSEEAIVQQVQQDLNRLLDLPAAKARLLGMKVWRRAWPQYMVGYPEQWQQVTHALSQTPGLFLCSNYAEGVALGDRVEHGNRTAAAVAAYLSGGQP | + (‘+’ per each 10-fold resistance) | +++++ (until ‘+++++’ as maximal resistance) | +++ (‘+’ per each 10-fold resistance) | +++ (‘+’ per each 10-fold resistance) | +++++ (until ‘+++++’ as maximal resistance) | +++ (‘+’ per each 10-fold resistance) | +++++ (until ‘+++++’ as maximal resistance)
CyPPO19 V305M + I408W + F360V: variant of CyPPO19 PPO protein (SEQ ID NO: 1) (protein, Synthetic_PPO of Thermosynechococcus elongatus PKUAC-SCTE542 (comprising GenBank No. CP032152.1)) MSEVDVAIVGGGLSGLSLAWRLQQSAPQYSVVLLEASDRLGGNITTQTAEGFVWELGPNSFAPTPALLQLIAEVGLQSELIRGDRHLPRYIYWRGQLYPLQPTRPLALATSNLLSPWGKVRAALGALGFVPPYLGSGDESVNSFFRRHLGQEVAERLVAPFVSGVYAGDPQQLSAAAAFRRIAQLEKLGGGLIAGALHLRRQQAPKPKPPTSVQMRPGELGSFKEGLAALPRAIAQQLKAPIHLQTPVQEITPDPKGGYLLRSGEQTWRARSVVLATPAYQTAELVAPFQPAIARVLATIPYPTMACVVLAYPAGLGRSVRPGFGVLIPRSQGIRTLGTIWSSCLFPQRTPAGWQVFTSVIGGATDPDLASLSEEAIVQQVQQDLNRLLDLPAAKARLLGMKVWRRAWPQYMVGYPEQWQQVTHALSQTPGLFLCSNYAEGVALGDRVEHGNRTAAAVAAYLSGGQP | + (‘+’ per each 10-fold resistance) | +++++ (until ‘+++++’ as maximal resistance) | +++ (‘+’ per each 10-fold resistance) | +++ (‘+’ per each 10-fold resistance) | +++++ (until ‘+++++’ as maximal resistance) | ++++ (‘+’ per each 10-fold resistance) | +++++ (until ‘+++++’ as maximal resistance)
CyPPO19 L327T + I408R + F360M: variant of CyPPO19 PPO protein (SEQ ID NO: 1) (protein, Synthetic_PPO of Thermosynechococcus elongatus PKUAC-SCTE542 (comprising GenBank No. CP032152.1)) MSEVDVAIVGGGLSGLSLAWRLQQSAPQYSVVLLEASDRLGGNITTQTAEGFVWELGPNSFAPTPALLQLIAEVGLQSELIRGDRHLPRYIYWRGQLYPLQPTRPLALATSNLLSPWGKVRAALGALGFVPPYLGSGDESVNSFFRRHLGQEVAERLVAPFVSGVYAGDPQQLSAAAAFRRIAQLEKLGGGLIAGALHLRRQQAPKPKPPTSVQMRPGELGSFKEGLAALPRAIAQQLKAPIHLQTPVQEITPDPKGGYLLRSGEQTWRARSVVLATPAYQTAELVAPFQPAIARVLATIPYPTVACVVLAYPAGLGRSVRPGFGVTIPRSQGIRTLGTIWSSCLFPQRTPAGWQVFTSMIGGATDPDLASLSEEAIVQQVQQDLNRLLDLPAAKARLLGMKVWRRARPQYMVGYPEQWQQVTHALSQTPGLFLCSNYAEGVALGDRVEHGNRTAAAVAAYLSGGQP | + (‘+’ per each 10-fold resistance) | +++++ (until ‘+++++’ as maximal resistance) | ++ (‘+’ per each 10-fold resistance) | +++ (‘+’ per each 10-fold resistance) | +++ (‘+’ per each 10-fold resistance) | + (‘+’ per each 10-fold resistance) | +++++ (until ‘+++++’ as maximal resistance)
CyPPO19 V305L + I408R + F360L: variant of CyPPO19 PPO protein (SEQ ID NO: 1) (protein, Synthetic_PPO of Thermosynechococcus elongatus PKUAC-SCTE542 (comprising GenBank No. CP032152.1)) MSEVDVAIVGGGLSGLSLAWRLQQSAPQYSVVLLEASDRLGGNITTQTAEGFVWELGPNSFAPTPALLQLIAEVGLQSELIRGDRHLPRYIYWRGQLYPLQPTRPLALATSNLLSPWGKVRAALGALGFVPPYLGSGDESVNSFFRRHLGQEVAERLVAPFVSGVYAGDPQQLSAAAAFRRIAQLEKLGGGLIAGALHLRRQQAPKPKPPTSVQMRPGELGSFKEGLAALPRAIAQQLKAPIHLQTPVQEITPDPKGGYLLRSGEQTWRARSVVLATPAYQTAELVAPFQPAIARVLATIPYPTLACVVLAYPAGLGRSVRPGFGVLIPRSQGIRTLGTIWSSCLFPQRTPAGWQVFTSLIGGATDPDLASLSEEAIVQQVQQDLNRLLDLPAAKARLLGMKVWRRARPQYMVGYPEQWQQVTHALSQTPGLFLCSNYAEGVALGDRVEHGNRTAAAVAAYLSGGQP | + (‘+’ per each 10-fold resistance) | ++++ (‘+’ per each 10-fold resistance) | + (‘+’ per each 10-fold resistance) | ++ (‘+’ per each 10-fold resistance) | +++++ (until ‘+++++’ as maximal resistance) | ++ (‘+’ per each 10-fold resistance) | +++++ (until ‘+++++’ as maximal resistance)
